Data taken from paper PMC3115021, “Dynamics of Cdk1 Substrate Specificity during the Cell Cycle” (Molecular Cell, 2011).

B1: SLI15: purified yeast protein tested as Cdk1 substrate (protein, UniProt P38283 1-698, looked up)
Inner centromere protein SLI15: MDWAIKAARKKTQRKPGSTRSIIETLDDLNNLTTDAHSEINQRLYESSEWLRNNVYMNTLKYEDKKMEESLISPENTHNKMDVEFPKMKGEYELSNSQNDAAKDVTKTPRNGLHNDKSITPKSLRRKEVTEGMNRFSIHDTNKSPVEPLNSVKVDANESEKSSPWSPYKVEKVLRESSKTSESPINTKRFDNQTWAAKEEMENEPILQALKKAESVKVKPPPNSGIARSQRRSNMFVPLPNKDPLIIQHIPPTKSSGSIPKVRTVKESPIAFKKKSTINSPAIRAVENSDTAGSTKASSVFDRLSSIPTKSFENKISRGNVGHKYSSSSIDLTGSPMKKVSQKFKSINSTDTDMQEALRDIFSVKNKITKNNSPKGKNSRKSSIPRFDKTSLKLTTHKKLAIIAEQKKKSKHSSDVHKTGSRPHSISPTKISVDSSSPSKEVKNYYQSPVRGYLRPTKASISPNKNKNLTTSQTPHRLKIKEKTLRKLSPNIADISKPESRKSKNYRLTNLQLLPPAEAERDDLKKKFDKRLSGIMRSQQEHHRRKQEKQKRMSHLEQDLKKQTSFSNDYKDIRLKESLAPFDNHVRDTINKNTAFSTDNILATINTVDHREIIGNVTPKIASVNDSLPEINTDSEDEASVTLAAWAKSPYLQEQLIRQQDINPQTIFGPIPPLHTDEIFPNPRLNRLKPRQIVPKRS
B2: PXL1: purified yeast protein tested as Cdk1 substrate (protein, UniProt P36166 1-706, looked up)
Paxillin-like protein 1: MYNSIYGSPFPKINPKVRYKTALERAGFDTKPRNPFSSQRNASTGSLQASVKSPPITRQRNVSAAPSVPVTMKSAYTASSKSAYSSVKGESDIYPPPVLENSERRSVTPPKNSNFTSSRPSDISRSISRPSERASQEDPFRFERDLDRQAEQYAASRHTCKSPANKEFQAADNFPFNFEQEDAGNTEREQDLSPIERSFMMLTQNDTASVVNSMNQTDNRGVLDQKLGKEQQKEESSIEYESEGQQEDENDIESLNFEPDPKLQMNLENEPLQDDFPEAKQEEKNTEPKIPEINVTRESNTPSLTMNALDSKIYPDDNFSGLESSKEQKSPGVSSSSTKVEDLSLDGLNEKRLSITSSENVETPYTATNLQVEQLIAQLDDVSLSRNAKLDMNGNCLNAVDRKASRFKKSSAYLSGYPSMDIPVTQQTSIVQNSNTNLSRQTILVDKGDVDEDAPSESTTNGGTPIFYKFKQSNVEYSNNEGMGSQETFRTKLPTIEALQLQHKRNITDLREEIDNSKSNDSHVLPNGGTTRYSSDADYKETEPIEFKYPPGEGPCRACGLEVTGKRMFSKKENELSGQWHRECFKCIECGIKFNKHVPCYILGDEPYCQKHYHEENHSICKVCSNFIEGECLENDKVERFHVDCLNCFLCKTAITNDYYIFNGEIPLCGNHDMEALLKEGIDNATSSNDKNNTLSKRRTRLINFN

Columns and labels:
Experiment in all cases: Quantitative phosphorylation assay of T33-Sic1ΔC constructs and recombinant substrates
Assay type in all cases: biochemical
Conditions in all cases: Table S2; purified protein substrate; relative values, not divided by [S]
[1] = biological target: T1, Clb2-Cdk1 (Saccharomyces cerevisiae, UniProt P00546+P24869)
T1 construct: We purified the four cyclin-Cdk1 complexes from yeast; made in house; host or cells: S. cerevisiae strain DOM0077 (gal-CLB2-TAP, sic1 deleted); Cks1 from bacteria
T1 sequence (P00546 2-298 limits assumed): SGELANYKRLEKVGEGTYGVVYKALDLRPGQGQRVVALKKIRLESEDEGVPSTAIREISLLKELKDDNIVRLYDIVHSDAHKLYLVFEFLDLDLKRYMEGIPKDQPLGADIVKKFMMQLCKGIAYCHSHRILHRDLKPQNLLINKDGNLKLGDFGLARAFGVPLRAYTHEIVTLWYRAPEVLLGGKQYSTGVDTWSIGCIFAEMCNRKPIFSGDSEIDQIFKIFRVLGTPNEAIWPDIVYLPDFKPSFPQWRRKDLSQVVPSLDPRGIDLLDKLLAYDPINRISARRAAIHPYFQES
T1 sequence (P24869 2-491 partner limits assumed): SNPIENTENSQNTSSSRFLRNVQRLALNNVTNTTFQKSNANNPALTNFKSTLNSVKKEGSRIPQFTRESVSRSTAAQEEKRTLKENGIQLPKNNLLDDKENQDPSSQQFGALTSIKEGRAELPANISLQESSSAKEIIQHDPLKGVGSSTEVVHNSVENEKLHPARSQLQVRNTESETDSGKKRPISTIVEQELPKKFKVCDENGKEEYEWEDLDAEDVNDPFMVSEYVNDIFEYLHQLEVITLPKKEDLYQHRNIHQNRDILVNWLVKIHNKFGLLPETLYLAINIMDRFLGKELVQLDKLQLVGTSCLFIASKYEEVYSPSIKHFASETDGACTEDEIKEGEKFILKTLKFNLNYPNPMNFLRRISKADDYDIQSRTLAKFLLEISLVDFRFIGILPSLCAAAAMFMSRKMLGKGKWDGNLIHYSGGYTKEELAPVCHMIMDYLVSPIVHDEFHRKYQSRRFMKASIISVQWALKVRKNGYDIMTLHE
T1 sequence (P20486 whole entry partner): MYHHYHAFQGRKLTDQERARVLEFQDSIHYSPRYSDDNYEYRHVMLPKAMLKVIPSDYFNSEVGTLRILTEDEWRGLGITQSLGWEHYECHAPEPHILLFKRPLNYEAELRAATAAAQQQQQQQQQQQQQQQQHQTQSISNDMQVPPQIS

[2] = biological target: T2, Clb3-Cdk1 (Saccharomyces cerevisiae, UniProt P00546+P24870)
T2 construct: We purified the four cyclin-Cdk1 complexes from yeast; made in house; host or cells: S. cerevisiae strain DOM0957 (gal-CLB3-TAP, sic1 deleted); Cks1 from bacteria
T2 sequence (P00546 2-298 limits assumed): as the sequence (P00546 2-298 limits assumed) above
T2 sequence (P24870 whole entry partner): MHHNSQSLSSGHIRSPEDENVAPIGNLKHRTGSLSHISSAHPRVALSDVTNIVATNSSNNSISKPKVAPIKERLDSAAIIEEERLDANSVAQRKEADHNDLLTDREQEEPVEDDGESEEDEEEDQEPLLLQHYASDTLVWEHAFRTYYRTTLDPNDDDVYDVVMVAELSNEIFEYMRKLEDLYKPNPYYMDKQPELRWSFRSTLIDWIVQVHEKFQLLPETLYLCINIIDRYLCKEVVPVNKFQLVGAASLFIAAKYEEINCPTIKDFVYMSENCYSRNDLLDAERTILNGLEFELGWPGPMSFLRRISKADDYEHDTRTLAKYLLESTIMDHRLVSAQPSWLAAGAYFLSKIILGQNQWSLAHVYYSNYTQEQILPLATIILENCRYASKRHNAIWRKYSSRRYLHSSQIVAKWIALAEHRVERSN
T2 sequence (P20486 whole entry partner): as the sequence (P20486 whole entry partner) above

[3] = biological target: T3, Clb5-Cdk1 (Saccharomyces cerevisiae, UniProt P00546+P30283)
T3 construct: We purified the four cyclin-Cdk1 complexes from yeast; made in house; host or cells: S. cerevisiae strain DOM0076 (gal-CLB5-TAP, sic1 deleted); Cks1 from bacteria
T3 sequence (P00546 2-298 limits assumed): as the sequence (P00546 2-298 limits assumed) above
T3 sequence (P30283 whole entry partner): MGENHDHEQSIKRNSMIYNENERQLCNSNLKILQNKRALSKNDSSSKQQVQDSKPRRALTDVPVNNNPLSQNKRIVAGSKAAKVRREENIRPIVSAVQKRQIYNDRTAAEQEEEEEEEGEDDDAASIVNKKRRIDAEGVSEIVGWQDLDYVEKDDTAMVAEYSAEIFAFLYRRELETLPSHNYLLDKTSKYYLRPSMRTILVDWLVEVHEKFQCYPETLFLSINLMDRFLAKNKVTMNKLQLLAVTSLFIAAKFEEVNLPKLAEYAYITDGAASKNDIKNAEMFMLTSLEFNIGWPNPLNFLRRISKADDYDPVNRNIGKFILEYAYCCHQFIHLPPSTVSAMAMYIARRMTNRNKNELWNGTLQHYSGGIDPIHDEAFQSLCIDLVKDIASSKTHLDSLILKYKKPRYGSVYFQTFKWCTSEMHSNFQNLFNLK
T3 sequence (P20486 whole entry partner): as the sequence (P20486 whole entry partner) above

[4] = biological target: T4, Cln2-Cdk1 (Saccharomyces cerevisiae, UniProt P00546+P20438)
T4 construct: We purified the four cyclin-Cdk1 complexes from yeast; made in house; host or cells: S. cerevisiae strain DMY305 (galactose-induced); Cks1 from bacteria
T4 sequence (P00546 2-298 limits assumed): as the sequence (P00546 2-298 limits assumed) above
T4 sequence (P20438 whole entry partner): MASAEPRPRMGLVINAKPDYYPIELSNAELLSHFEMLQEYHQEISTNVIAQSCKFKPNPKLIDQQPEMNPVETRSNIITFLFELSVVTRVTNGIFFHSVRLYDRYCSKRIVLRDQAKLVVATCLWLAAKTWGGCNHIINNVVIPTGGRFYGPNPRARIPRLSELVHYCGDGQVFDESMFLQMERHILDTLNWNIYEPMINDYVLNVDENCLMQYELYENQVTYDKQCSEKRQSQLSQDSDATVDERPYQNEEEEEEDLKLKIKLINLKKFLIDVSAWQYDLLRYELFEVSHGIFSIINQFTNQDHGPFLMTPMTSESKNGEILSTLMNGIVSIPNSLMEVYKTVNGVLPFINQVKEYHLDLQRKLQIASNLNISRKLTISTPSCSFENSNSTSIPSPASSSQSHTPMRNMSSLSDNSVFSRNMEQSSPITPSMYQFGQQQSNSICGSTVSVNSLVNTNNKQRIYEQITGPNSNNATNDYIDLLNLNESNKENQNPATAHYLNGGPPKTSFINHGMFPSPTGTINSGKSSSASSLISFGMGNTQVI
T4 sequence (P20486 whole entry partner): as the sequence (P20486 whole entry partner) above

[5] = biological target: T5, Clb2hpm-Cdk1 (Saccharomyces cerevisiae, UniProt P00546)
T5 construct: made in house; host or cells: S. cerevisiae strain DOM0964 (gal-CLB2hpm-TAP, sic1 deleted); Cks1 from bacteria
T5 sequence (P00546 2-298 limits assumed): as the sequence (P00546 2-298 limits assumed) above
Procedure: (§1) For the quantitative phosphorylation assays of T33-Sic1ΔC constructs and recombinant substrates, substrate concentrations were kept in the range of 0.5–2 μM (in the linear [S] versus v0 range, several-fold below the estimated KM value), and initial velocity conditions were defined as an initial substrate turnover of up to 10% of the total turnover. For the steady-state peptide kinetics of the Histone peptide PKTPKKAKKL, a similar assay composition was used as for protein substrates, and phosphocellulose paper was used for the quantification of the phosphorylated substrate.
(§2) Supplemental Experimental Procedures
(§3) Plasmid constructs and yeast strains
(§4) For tandem affinity purification (TAP) of cyclin-Cdk1 complexes, the cyclin genes were cloned into the 2 micron vector pRSAB1234 containing a GAL1 promoter and the C-terminal TAP-tag. To purify different 6His-T33-Sic1ΔC forms for kinase assays, the C-terminally truncated fragment of Sic1 (with a stop codon inserted after amino acid 215) was cloned into the NheI/BamHI site of the bacterial expression vector pET28a (Invitrogen). Mutagenesis of cyclins or substrates was performed using single-stranded pRSAB1234 or pET28a vector constructs as templates. The triple mutants in the hydrophobic patch (hpm) of Clb5 and Clb2 were described previously (Loog and Morgan, 2005), and the hpm of Clb3 (Phe-201, Leu-205 and Trp-208 mutated to alanines) was designed according to sequence homology with other B-type cyclins. In T33-Sic1ΔC constructs, the other Cdk sites bearing the consensus motif S/T-P were mutated to Ala-Ala in order to prevent any possible (pseudo)substrate competition. The other Cdk substrates were cloned as full-length forms into bacterial expression vectors pET28a or pGEX-4T-1. Cdh1 was purified using the baculovirus system and was a kind gift from Monica Rodrigo-Brenni (UCSF). […]
The […]
(§5) pRSAB1234 analogously to the cyclin-Cdk1 complexes. For C-terminal tagging of cyclin genes in their chromosomal loci, the Pringle method was applied (Longtine et al., 1998). Lists of plasmid […]
(§6) The TAP method was applied for purification of cyclin-Cdk1 complexes and Swe1 as described previously for Clb5-TAP-Cdk1 and Clb2-TAP-Cdk1 (Puig et al., 2001; Ubersax et al., 2003). […]
(§7) tagged recombinant T33-Sic1ΔC constructs and substrates were cloned into the pET28a vector and purified by standard cobalt affinity chromatography and elution with 200 mM imidazole. 6His-Fin1 was purified as described previously (Woodbury and Morgan, 2007). Substrates cloned into the pGEX-4T-1 were purified on glutathione agarose columns using 5 mM reduced glutathione for elution. Cks1 was purified as described previously (Reynard et al., 2000). The optimal working concentration for purified Cks1 was taken as 500 nM based on optimization performed for cyclin-Cdk1 preparations and T33-Sic1ΔC as a substrate.
(§8) For the quantitative phosphorylation assays of T33-Sic1ΔC constructs and recombinant substrates, substrate concentrations were kept in the range of 0.5-2 μM (in the linear [S] vs v0 range, several-fold below the estimated KM value), and the initial velocity conditions were defined as an initial substrate turnover ranging up to 10% of the total turnover. The latter was estimated by a long-term incubation with excess amounts of cyclin-Cdk1 and 32P-γ-ATP in the standard reaction mixture given below. About 1-10 nM of purified kinase complex was used, reaction aliquots were taken at two or more time points, and the reaction was stopped by SDS-PAGE sample buffer. The relative kcat/KM values for the substrates were calculated as the ratio of v0/[S], which was determined from at least two independent experiments. The basal composition of the assay mixture contained 50 mM Hepes, pH 7.4, 100 mM NaCl, 0.1% NP-40, 20 mM imidazole, 0.1 mg/ml 2HA peptide, 2% glycerol, 2 mM EGTA, 0.2 mg/ml BSA, […], and 500 μM ATP (with added 32P-γ-ATP (Perkin Elmer)).
(§9) About 1-10 nM of purified kinase complex was used, reaction aliquots were taken at two or more […]

[6] = biological target: T6, Clb3hpm-Cdk1 (Saccharomyces cerevisiae, UniProt P00546+P24870)
T6 construct: made in house; host or cells: S. cerevisiae strain MK0168 (gal-CLB3hpm-TAP, sic1 deleted); Cks1 from bacteria
Procedure: as §1, §2, §3, §4
The […]
as §5, §6, §7, §8, §9

[7] = biological target: T7, Clb5hpm-Cdk1 (Saccharomyces cerevisiae, UniProt P00546)
T7 construct: made in house; host or cells: S. cerevisiae strain DOM0963 (gal-CLB5hpm-TAP, sic1 deleted); Cks1 from bacteria
T7 sequence (P00546 2-298 limits assumed): as above
Procedure: as §1, §2, §3, §4
The […]
as §5, §6, §7, §8, §9

| Molecule | kcat/KM, Clb2 [1] | kcat/KM, Clb3 [2] | kcat/KM, Clb5 [3] | kcat/KM, Cln2 [4] | kcat/KM, Clb2hpm [5] | kcat/KM, Clb3hpm [6] | kcat/KM, Clb5hpm [7] |
| --- | --- | --- | --- | --- | --- | --- | --- |
| B1 | 0.109 relative units | 0.141 relative units | 0.025 relative units | 0.422 relative units | 0.060 relative units | 0.032 relative units | 0.004 relative units |
| B2 | 0.571 relative units | 0.139 relative units | 0.031 relative units | 0.031 relative units | 0.244 relative units | 0.033 relative units | 0.015 relative units |
